Literature values in paper PMC9437294.

Target: 5-HT1A receptor C-terminus (UniProt P19327)

Kd: 37 nM
Substance: Yif1B N-terminal region (from UniProt Q6PEC3)
